Values of other authors, collected in patent US9394339B2, “Stabilized formulations of peptides and proteins protecting against non-enzymatic degradation” (Lyotropic Therapeutics, Inc., priority 2007, dated 2016).
Like-named read-outs stand apart in the source and are kept apart here.

Conditions: for T1/2 (half-life, deamidation): buffer
[1] = aqueous solution, pH 7.4, 37° C., Tris-HCl buffer

B1: Acetylcholinesterase (1F8U): human protein (protein, UniProt P22303 32-614, looked up)
Acetylcholinesterase: EGREDAELLVTVRGGRLRGIRLKTPGGPVSAFLGIPFAEPPMGPRRFLPPEPKQPWSGVVDATTFQSVCYQYVDTLYPGFEGTEMWNPNRELSEDCLYLNVWTPYPRPTSPTPVLVWIYGGGFYSGASSLDVYDGRFLVQAERTVLVSMNYRVGAFGFLALPGSREAPGNVGLLDQRLALQWVQENVAAFGGDPTSVTLFGESAGAASVGMHLLSPPSRGLFHRAVLQSGAPNGPWATVGMGEARRRATQLAHLVGCPPGGTGGNDTELVACLRTRPAQVLVNHEWHVLPQESVFRFSFVPVVDGDFLSDTPEALINAGDFHGLQVLVGVVKDEGSYFLVYGAPGFSKDNESLISRAEFLAGVRVGVPQVSDLAAEAVVLHYTDWLHPEDPARLREALSDVVGDHNVVCPVAQLAGRLAAQGARVYAYVFEHRASTLSWPLWMGVPHGYEIEFIFGIPLDPSRNYTAEEKIFAQRLMRYWANFARTGDPNEPRDPKAPQWPPYTAGAQQYVSLDLRPLEVRRGLRAQACAFWNRFLPKLLSATDTLDEAERQWKAEFHRWSSYMVHWKNQFDHYSKQDRCSDL
- T1/10 (time to 10% degradation by deamidation) [1]: 3.5 days

B2: Myeloperoxidase (1MHL): human protein (protein, UniProt P05164 165-745, looked up)
Myeloperoxidase: VTCPEQDKYRTITGMCNNRRSPTLGASNRAFVRWLPAEYEDGFSLPYGWTPGVKRNGFPVALARAVSNEIVRFPTDQLTPDQERSLMFMQWGQLLDHDLDFTPEPAARASFVTGVNCETSCVQQPPCFPLKIPPNDPRIKNQADCIPFFRSCPACPGSNITIRNQINALTSFVDASMVYGSEEPLARNLRNMSNQLGLLAVNQRFQDNGRALLPFDNLHDDPCLLTNRSARIPCFLAGDTRSSEMPELTSMHTLLLREHNRLATELKSLNPRWDGERLYQEARKIVGAMVQIITYRDYLPLVLGPTAMRKYLPTYRSYNDSVDPRIANVFTNAFRYGHTLIQPFMFRLDNRYQPMEPNPRVPLSRVFFASWRVVLEGGIDPILRGLMATPAKLNRQNQIAVDEIRERLFEQVMRIGLDLPALNMQRSRDHGLPGYNAWRRFCGLPQPETVGQLGTVLRNLKLARKLMEQYGTPNNIDIWMGGVSEPLKRKGRVGPLLACIIGTQFRKLRDGDRFWWENEGVFSMQQRQALAQISLPRIICDNTGITTVSKNNIFMSNSYPRDFVNCSTLPALNLASWREAS
- T1/10 (time to 10% degradation by deamidation) [1]: 2.4 days

B3: Bone morphogenetic protein 7 (1BMP): human protein (protein, UniProt P18075 293-431, looked up)
Bone morphogenetic protein 7: STGSKQRSQNRSKTPKNQEALRMANVAENSSSDQRQACKKHELYVSFRDLGWQDWIIAPEGYAAYYCEGECAFPLNSYMNATNHAIVQTLVHFINPETVPKPCCAPTQLNAISVLYFDDSSNVILKKYRNMVVRACGCH
- T1/10 (time to 10% degradation by deamidation) [1]: 3.2 days

B4: Farnesyltransferase (1EZF): human protein (protein, UniProt P37268 1-417, looked up)
Squalene synthase: MEFVKCLGHPEEFYNLVRFRIGGKRKVMPKMDQDSLSSSLKTCYKYLNQTSRSFAAVIQALDGEMRNAVCIFYLVLRALDTLEDDMTISVEKKVPLLHNFHSFLYQPDWRFMESKEKDRQVLEDFPTISLEFRNLAEKYQTVIADICRRMGIGMAEFLDKHVTSEQEWDKYCHYVAGLVGIGLSRLFSASEFEDPLVGEDTERANSMGLFLQKTNIIRDYLEDQQGGREFWPQEVWSRYVKKLGDFAKPENIDLAVQCLNELITNALHHIPDVITYLSRLRNQSVFNFCAIPQVMAIATLAACYNNQQVFKGAVKIRKGQAVTLMMDATNMPAVKAIIYQYMEEIYHRIPDSDPSSSKTRQIISTIRTQNLPNCQLISRSHYSPIYLSFVMLLAALSWQYLTTLSQVTEDYVQTGEH
- T1/10 (time to 10% degradation by deamidation) [1]: 4.0 days

B5: Catalase (1QQW): human protein (protein, UniProt P04040 2-527, looked up)
Catalase: ADSRDPASDQMQHWKEQRAAQKADVLTTGAGNPVGDKLNVITVGPRGPLLVQDVVFTDEMAHFDRERIPERVVHAKGAGAFGYFEVTHDITKYSKAKVFEHIGKKTPIAVRFSTVAGESGSADTVRDPRGFAVKFYTEDGNWDLVGNNTPIFFIRDPILFPSFIHSQKRNPQTHLKDPDMVWDFWSLRPESLHQVSFLFSDRGIPDGHRHMNGYGSHTFKLVNANGEAVYCKFHYKTDQGIKNLSVEDAARLSQEDPDYGIRDLFNAIATGKYPSWTFYIQVMTFNQAETFPFNPFDLTKVWPHKDYPLIPVGKLVLNRNPVNYFAEVEQIAFDPSNMPPGIEASPDKMLQGRLFAYPDTHRHRLGPNYLHIPVNCPYRARVANYQRDGPMCMQDNQGGAPNYYPNSFGAPEQQPSALEHSIQYSGEVRRFNTANDDNVTQVRAFYVNVLNEEQRKRLCENIAGHLKDAQIFIQKKAVKNFTEVHPDYGSHIQALLDKYNAEKPKNAIHTFVQSGSHLAAREKANL
- T1/10 (time to 10% degradation by deamidation) [1]: 3.8 days

B6: Pepsinogen (1HTR): human protein (protein, UniProt P20142 17-388, looked up)
pro-form: AVVKVPLKKFKSIRETMKEKGLLGEFLRTHKYDPAWKYRFGDLSVTYEPMAYMDAAYFGEISIGTPPQNFLVLFDTGSSNLWVPSVYCQSQACTSHSRFNPSESSTYSTNGQTFSLQYGSGSLTGFFGYDTLTVQSIQVPNQEFGLSENEPGTNFVYAQFDGIMGLAYPALSVDEATTAMQGMVQEGALTSPVFSVYLSNQQGSSGGAVVFGGVDSSLYTGQIYWAPVTQELYWQIGIEEFLIGGQASGWCSEGCQAIVDTGTSLLTVPQQYMSALLQATGAQEDEYGQFLVNCNSIQNLPSLTFIINGVEFPLPPSSYILSNNGYCTVGVEPTYLSSQNGQPLWILGDVFLRSYYSVYDLGNNRVGFATAA
modifications: pro-form
- T1/10 (time to 10% degradation by deamidation) [1]: 3.0 days

B7: Dihydrofolate reductase (1DRF): human protein (protein, UniProt P00374 1-187, looked up)
Dihydrofolate reductase: MVGSLNCIVAVSQNMGIGKNGDLPWPPLRNEFRYFQRMTTTSSVEGKQNLVIMGKKTWFSIPEKNRPLKGRINLVLSRELKEPPQGAHFLSRSLDDALKLTEQPELANKVDMVWIVGGSSVYKEAMNHPGHLKLFVTRIMQDFESDTFFPEIDLEKYKLLPEYPGVLSDVQEEKGIKYKFEVYEKND
- T1/2 (half-life, deamidation) (pH 7.4): 25 days
- T1/10 (time to 10% degradation by deamidation) (pH 7.4): 3.8 days

B8: Fructose bisphosphate aldolase (4ALD): human protein (protein, UniProt P04075 2-364, looked up)
Fructose-bisphosphate …: PYQYPALTPEQKKELSDIAHRIVAPGKGILAADESTGSIAKRLQSIGTENTEENRRFYRQLLLTADDRVNPCIGGVILFHETLYQKADDGRPFPQVIKSKGGVVGIKVDKGVVPLAGTNGETTTQGLDGLSERCAQYKKDGADFAKWRCVLKIGEHTPSALAIMENANVLARYASICQQNGIVPIVEPEILPDGDHDLKRCQYVTEKVLAAVYKALSDHHIYLEGTLLKPNMVTPGHACTQKFSHEEIAMATVTALRRTVPPAVTGITFLSGGQSEEEASINLNAINKCPLLKPWALTFSYGRALQASALKAWGGKKENLKAAQEEYVKRALANSLACQGKYTPSGQAGAAASESLFVSNHAY
- T1/2 (half-life, deamidation) (pH 7.4): 7.6 days
- T1/10 (time to 10% degradation by deamidation) (pH 7.4): 1.2 days

B9: Inositol monophosphatase (1IMB): human protein (protein, UniProt P29218 1-277, looked up)
Inositol monophosphatase 1: MADPWQECMDYAVTLARQAGEVVCEAIKNEMNVMLKSSPVDLVTATDQKVEKMLISSIKEKYPSHSFIGEESVAAGEKSILTDNPTWIIDPIDGTTNFVHRFPFVAVSIGFAVNKKIEFGVVYSCVEGKMYTARKGKGAFCNGQKLQVSQQEDITKSLLVTELGSSRTPETVRMVLSNMEKLFCIPVHGIRSVGTAAVNMCLVATGGADAYYEMGIHCWDVAGAGIIVTEAGGVLMDVTGGPFDLMSRRVIAANNRILAERIAKEIQVIPLQRDDED
- T1/2 (half-life, deamidation) (pH 7.4): 15 days
- T1/10 (time to 10% degradation by deamidation) (pH 7.4): 2.3 days

B10: Karyopherin 2 (1QBK): human protein (protein, UniProt Q92973 1-898, looked up)
Transportin-1: MVWDRQTKMEYEWKPDEQGLQQILQLLKESQSPDTTIQRTVQQKLEQLNQYPDFNNYLIFVLTKLKSEDEPTRSLSGLILKNNVKAHFQNFPNGVTDFIKSECLNNIGDSSPLIRATVGILITTIASKGELQNWPDLLPKLCSLLDSEDYNTCEGAFGALQKICEDSAEILDSDVLDRPLNIMIPKFLQFFKHSSPKIRSHAVACVNQFIISRTQALMLHIDSFIENLFALAGDEEPEVRKNVCRALVMLLEVRMDRLLPHMHNIVEYMLQRTQDQDENVALEACEFWLTLAEQPICKDVLVRHLPKLIPVLVNGMKYSDIDIILLKGDVEEDETIPDSEQDIRPRFHRSRTVAQQHDEDGIEEEDDDDDEIDDDDTISDWNLRKCSAAALDVLANVYRDELLPHILPLLKELLFHHEWVVKESGILVLGAIAEGCMQGMIPYLPELIPHLIQCLSDKKALVRSITCWTLSRYAHWVVSQPPDTYLKPLMTELLKRILDSNKRVQEAACSAFATLEEEACTELVPYLAYILDTLVFAFSKYQHKNLLILYDAIGTLADSVGHHLNKPEYIQMLMPPLIQKWNMLKDEDKDLFPLLECLSSVATALQSGFLPYCEPVYQRCVNLVQKTLAQAMLNNAQPDQYEAPDKDFMIVALDLLSGLAEGLGGNIEQLVARSNILTLMYQCMQDKMPEVRQSSFALLGDLTKACFQHVKPCIADFMPILGTNLNPEFISVCNNATWAIGEISIQMGIEMQPYIPMVLHQLVEIINRPNTPKTLLENTAITIGRLGYVCPQEVAPMLQQFIRPWCTSLRNIRDNEEKDSAFRGICTMISVNPSGVIQDFIFFCDAVASWINPKDDLRDMFCKILHGFKNQVGDENWRRFSDQFPLPLKERLAAFYGV
- T1/10 (time to 10% degradation by deamidation) [1]: 0.81 days

B11: S-adenosylhomocysteine hydrolase (1A7A): human protein (protein, UniProt P23526 2-432, looked up)
Adenosylhomocysteinase: SDKLPYKVADIGLAAWGRKALDIAENEMPGLMRMRERYSASKPLKGARIAGCLHMTVETAVLIETLVTLGAEVQWSSCNIFSTQDHAAAAIAKAGIPVYAWKGETDEEYLWCIEQTLYFKDGPLNMILDDGGDLTNLIHTKYPQLLPGIRGISEETTTGVHNLYKMMANGILKVPAINVNDSVTKSKFDNLYGCRESLIDGIKRATDVMIAGKVAVVAGYGDVGKGCAQALRGFGARVIITEIDPINALQAAMEGYEVTTMDEACQEGNIFVTTTGCIDIILGRHFEQMKDDAIVCNIGHFDVEIDVKWLNENAVEKVNIKPQVDRYRLKNGRRIILLAEGRLVNLGCAMGHPSFVMSNSFTNQVMAQIELWTHPDKYPVGVHFLPKKLDEAVAEAHLGKLNVKLTKLTEKQAQYLGMSCDGPFKPDHYRY
- T1/10 (time to 10% degradation by deamidation) [1]: 4.3 days

B12: Interleukin-16 (1I16): human protein (protein, UniProt Q14005 1212-1332, looked up)
Interleukin-16: SAASASAASDVSVESTAEATVCTVTLEKMSAGLGFSLEGGKGSLHGDKPLTINRIFKGAASEQSETVQPGDEILQLGGTAMQGLTRFEAWNIIKALPDGPVTIVIRRKSLQSKETTAAGDS
- T1/10 (time to 10% degradation by deamidation) [1]: 2.6 days
